Measurements published in patent publication US20090186027A1.

Columns and labels:
β-amyloid peptide 1-40 = β-amyloid peptide 1-40 (UniProt P05067); assay: cell-based or functional assay
[1] = target: biotinylated peptide composed of amino acids 1-16 of the Aβ peptide (UniProt P05067); assay: phage ELISA screen of colonies after biopanning, negative control

Substance	Percent Aggregation (ThT emission at 485 nm), plus 1 µM 10D5 (β-amyloid peptide 1-40)	Percent Disaggregation (ThT), plus 1 µM 10D5 (β-amyloid peptide 1-40)	absorbance at 492 nm (OD) [1]
10D5 (monoclonal antibody against the N terminus of Aβ peptide)	61.4%	38.6%	
helper phage M13KO7			0.003 to 0.005 OD
